Measured values: US20210238260A1 (published 2021)

T1: Factor VIIIa (recombinant FVIII, Kogenate FS, activated with alpha-thrombin) (UniProt P00451 20-2351)
T1 construct: also called FVIIIa
T1 sequence (looked up): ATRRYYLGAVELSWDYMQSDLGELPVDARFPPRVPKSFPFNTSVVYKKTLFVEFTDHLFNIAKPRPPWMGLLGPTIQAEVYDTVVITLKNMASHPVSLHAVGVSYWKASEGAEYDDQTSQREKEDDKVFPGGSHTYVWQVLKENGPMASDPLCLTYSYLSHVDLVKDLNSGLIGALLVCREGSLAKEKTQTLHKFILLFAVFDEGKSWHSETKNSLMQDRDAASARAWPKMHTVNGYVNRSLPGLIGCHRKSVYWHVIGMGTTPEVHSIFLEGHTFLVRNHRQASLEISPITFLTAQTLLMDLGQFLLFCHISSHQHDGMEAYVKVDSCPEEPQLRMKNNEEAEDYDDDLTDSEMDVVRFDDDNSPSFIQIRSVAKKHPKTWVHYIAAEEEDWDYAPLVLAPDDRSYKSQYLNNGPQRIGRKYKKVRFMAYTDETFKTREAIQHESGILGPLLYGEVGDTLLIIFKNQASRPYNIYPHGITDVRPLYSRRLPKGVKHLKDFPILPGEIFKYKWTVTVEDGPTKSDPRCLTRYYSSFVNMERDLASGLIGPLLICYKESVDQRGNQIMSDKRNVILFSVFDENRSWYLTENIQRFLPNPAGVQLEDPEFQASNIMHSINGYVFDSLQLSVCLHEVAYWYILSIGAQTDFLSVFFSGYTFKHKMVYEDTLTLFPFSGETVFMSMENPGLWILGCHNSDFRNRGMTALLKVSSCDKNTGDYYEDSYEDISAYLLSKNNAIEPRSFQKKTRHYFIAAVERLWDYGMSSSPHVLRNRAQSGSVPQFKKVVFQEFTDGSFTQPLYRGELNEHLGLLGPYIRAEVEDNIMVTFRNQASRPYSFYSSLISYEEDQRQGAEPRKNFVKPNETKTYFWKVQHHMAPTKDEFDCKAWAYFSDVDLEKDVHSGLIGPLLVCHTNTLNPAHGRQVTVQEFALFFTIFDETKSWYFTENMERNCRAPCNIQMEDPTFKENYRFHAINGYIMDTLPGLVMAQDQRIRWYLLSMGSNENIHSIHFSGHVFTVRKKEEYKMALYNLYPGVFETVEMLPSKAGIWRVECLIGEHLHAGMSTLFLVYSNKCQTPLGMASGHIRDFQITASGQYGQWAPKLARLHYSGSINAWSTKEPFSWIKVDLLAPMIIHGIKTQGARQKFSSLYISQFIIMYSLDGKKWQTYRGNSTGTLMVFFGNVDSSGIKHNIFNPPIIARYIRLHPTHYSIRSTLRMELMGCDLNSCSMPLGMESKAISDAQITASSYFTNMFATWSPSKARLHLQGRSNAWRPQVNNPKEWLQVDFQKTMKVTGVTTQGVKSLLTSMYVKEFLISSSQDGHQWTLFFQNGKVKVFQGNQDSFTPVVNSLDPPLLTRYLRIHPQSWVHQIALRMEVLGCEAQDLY

T2: Factor VIIIa (FVIIIa), from recombinant FVIII (Kogenate FS; Bayer healthcare) activated with alpha-thrombin (UniProt P00451 20-2351)
T2 sequence (looked up): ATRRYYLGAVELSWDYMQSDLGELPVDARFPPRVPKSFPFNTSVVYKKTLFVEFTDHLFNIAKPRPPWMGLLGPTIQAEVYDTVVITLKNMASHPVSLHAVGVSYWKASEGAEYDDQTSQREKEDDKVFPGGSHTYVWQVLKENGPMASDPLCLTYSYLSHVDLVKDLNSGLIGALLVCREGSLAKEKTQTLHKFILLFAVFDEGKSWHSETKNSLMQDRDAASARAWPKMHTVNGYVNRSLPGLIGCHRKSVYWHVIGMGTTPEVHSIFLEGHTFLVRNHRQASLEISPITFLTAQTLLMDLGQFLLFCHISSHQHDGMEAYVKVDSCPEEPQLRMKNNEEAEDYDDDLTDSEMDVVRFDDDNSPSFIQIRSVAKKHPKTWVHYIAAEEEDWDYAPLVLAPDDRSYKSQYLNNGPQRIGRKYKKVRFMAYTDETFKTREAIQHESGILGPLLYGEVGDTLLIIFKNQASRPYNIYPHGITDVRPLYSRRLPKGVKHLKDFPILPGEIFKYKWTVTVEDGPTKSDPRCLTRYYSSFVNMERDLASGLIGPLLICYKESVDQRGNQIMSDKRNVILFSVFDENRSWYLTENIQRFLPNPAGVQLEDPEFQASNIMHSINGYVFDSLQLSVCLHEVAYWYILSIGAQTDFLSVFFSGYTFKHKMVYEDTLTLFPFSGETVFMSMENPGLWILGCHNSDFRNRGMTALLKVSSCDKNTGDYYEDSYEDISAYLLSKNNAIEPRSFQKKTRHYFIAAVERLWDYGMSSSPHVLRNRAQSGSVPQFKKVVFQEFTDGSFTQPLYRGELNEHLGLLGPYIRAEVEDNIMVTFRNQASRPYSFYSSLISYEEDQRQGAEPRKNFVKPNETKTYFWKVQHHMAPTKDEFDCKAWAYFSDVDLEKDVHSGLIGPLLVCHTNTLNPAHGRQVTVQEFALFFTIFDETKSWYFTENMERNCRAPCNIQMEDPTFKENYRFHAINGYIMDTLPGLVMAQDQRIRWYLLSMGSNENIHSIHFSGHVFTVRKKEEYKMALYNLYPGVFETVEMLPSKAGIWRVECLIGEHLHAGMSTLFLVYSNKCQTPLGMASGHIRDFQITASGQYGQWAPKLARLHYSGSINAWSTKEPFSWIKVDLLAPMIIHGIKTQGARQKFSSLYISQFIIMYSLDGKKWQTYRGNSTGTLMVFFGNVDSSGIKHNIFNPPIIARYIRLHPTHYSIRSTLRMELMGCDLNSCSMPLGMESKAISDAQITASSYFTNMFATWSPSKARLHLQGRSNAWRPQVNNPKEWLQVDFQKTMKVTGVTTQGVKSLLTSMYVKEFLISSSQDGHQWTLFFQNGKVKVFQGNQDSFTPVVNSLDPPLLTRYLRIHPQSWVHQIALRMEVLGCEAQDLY


Key:
[1] = target: T1, Factor VIIIa (recombinant FVIII, …); assay: functional cofactor affinity KD-app: fluorogenic FX activation (Xase) assay, FVIIIa titrated, PC/PS vesicles, saturating FX
Procedure: Reactions were monitored in a SpectraMax fluorescence plate reader for 30 min at 37° C. A standard curve of free AMC served as the conversion factor for RFU to μM in the subsequent data analysis calculations using a dose range that covered 0 μM to 100 μM AMC.

[2] = target: T2, Factor VIIIa (FVIIIa), from recombinant …; assay: apparent functional KD (KD-app): FX activation rate vs FVIIIa titration, fluorogenic Xase assay with PC/PS vesicles and Ca2+
Source text: (§1) The activity of alpha-thrombin was then quenched by the addition of a highly specific thrombin inhibitor, hirudin, prior to initiating the assay.

[3] = target: T2, Factor VIIIa (FVIIIa), from recombinant …; assay: ratio of KD-app of Catalyst Biosciences WT FIXa to KD-app of the variant, same Xase assay
Source text: as §1

Binder | Kd [1] | Kd [2] | KD-WT/KD-mut [3]
FIXa-Y155F/R318Y/R338E/T343R (enzyme) chain 1: YNSGKLEEFVQGNLERECMEEKCSFEEAREVFENTERTTEFWKQYVDGDQCESNPCLNGGSCKDDINSYECWCPFGFEGKNCELDVTCNIKNGRCEQFCKNSADNKVVCSCTEGYRLAENQKSCEPAVPFPCGRVSVSQTSKLTR chain 2: VVGGEDAKPGQFPWQVVLNGKVDAFCGGSIVNEKWIVTAAHCVETGVKITVVAGEHNIEETEHTEQKRNVIRIIPHHNYNAAINKYNHDIALLELDEPLVLNSYVTPICIADKEYTNIFLKFGSGYVSGWGRVFHKGYSALVLQYLRVPLVDRATCLESTKFRIYNNMFCAGFHEGGRDSCQGDSGGPHVTEVEGTSFLTGIISWGEECAMKGKYGIYTKVSRYVNWIKEKTKLT | 8.4 nM | – | –
FIXa variant D104N/K106S/K247N/N249S/R318Y/R338E/R403E/E410N (enzyme) light: YNSGKLEEFVQGNLERECMEEKCSFEEAREVFENTERTTEFWKQYVDGDQCESNPCLNGGSCKDDINSYECWCPFGFEGKNCELDVTCNIKNGRCEQFCKNSANNSVVCSCTEGYRLAENQKSCEPAVPFPCGRVSVSQTSKLTR heavy: VVGGEDAKPGQFPWQVVLNGKVDAFCGGSIVNEKWIVTAAHCVETGVKITVVAGEHNIEETEHTEQNRSVIRIIPHHNYNAAINKYNHDIALLELDEPLVLNSYVTPICIADKEYTNIFLKFGSGYVSGWGRVFHKGYSALVLQYLRVPLVDRATCLESTKFTIYNNMFCAGFHEGGRDSCQGDSGGPHVTEVEGTSFLTGIISWGEECAMKGKYGIYTKVSEYVNWIKNKTKLT | – | 87.4 nM | 1.1 fold
FIXa-Y155F/K228N/K247N/N249S/R318Y/R338E/T343R/R403E/E410N (enzyme) chain 1: YNSGKLEEFVQGNLERECMEEKCSFEEAREVFENTERTTEFWKQYVDGDQCESNPCLNGGSCKDDINSYECWCPFGFEGKNCELDVTCNIKNGRCEQFCKNSADNKVVCSCTEGYRLAENQKSCEPAVPFPCGRVSVSQTSKLTR chain 2: VVGGEDAKPGQFPWQVVLNGKVDAFCGGSIVNEKWIVTAAHCVETGVNITVVAGEHNIEETEHTEQNRSVIRIIPHHNYNAAINKYNHDIALLELDEPLVLNSYVTPICIADKEYTNIFLKFGSGYVSGWGRVFHKGYSALVLQYLRVPLVDRATCLESTKFRIYNNMFCAGFHEGGRDSCQGDSGGPHVTEVEGTSFLTGIISWGEECAMKGKYGIYTKVSEYVNWIKNKTKLT | 37 nM | – | –
FIXa-Y155F/R338E/T343R/R403E (enzyme) chain 1: YNSGKLEEFVQGNLERECMEEKCSFEEAREVFENTERTTEFWKQYVDGDQCESNPCLNGGSCKDDINSYECWCPFGFEGKNCELDVTCNIKNGRCEQFCKNSADNKVVCSCTEGYRLAENQKSCEPAVPFPCGRVSVSQTSKLTR chain 2: VVGGEDAKPGQFPWQVVLNGKVDAFCGGSIVNEKWIVTAAHCVETGVKITVVAGEHNIEETEHTEQKRNVIRIIPHHNYNAAINKYNHDIALLELDEPLVLNSYVTPICIADKEYTNIFLKFGSGYVSGWGRVFHKGRSALVLQYLRVPLVDRATCLESTKFRIYNNMFCAGFHEGGRDSCQGDSGGPHVTEVEGTSFLTGIISWGEECAMKGKYGIYTKVSEYVNWIKEKTKLT | 72.1 nM | – | –
FIXa-Y155F/R338E/T343R/R403E/E410N (enzyme) chain 1: YNSGKLEEFVQGNLERECMEEKCSFEEAREVFENTERTTEFWKQYVDGDQCESNPCLNGGSCKDDINSYECWCPFGFEGKNCELDVTCNIKNGRCEQFCKNSADNKVVCSCTEGYRLAENQKSCEPAVPFPCGRVSVSQTSKLTR chain 2: VVGGEDAKPGQFPWQVVLNGKVDAFCGGSIVNEKWIVTAAHCVETGVKITVVAGEHNIEETEHTEQKRNVIRIIPHHNYNAAINKYNHDIALLELDEPLVLNSYVTPICIADKEYTNIFLKFGSGYVSGWGRVFHKGRSALVLQYLRVPLVDRATCLESTKFRIYNNMFCAGFHEGGRDSCQGDSGGPHVTEVEGTSFLTGIISWGEECAMKGKYGIYTKVSEYVNWIKNKTKLT | 28.5 nM | – | –
FIXa variant D104N/K106S/I251S/R318Y/R338E/E410N (enzyme) light: YNSGKLEEFVQGNLERECMEEKCSFEEAREVFENTERTTEFWKQYVDGDQCESNPCLNGGSCKDDINSYECWCPFGFEGKNCELDVTCNIKNGRCEQFCKNSANNSVVCSCTEGYRLAENQKSCEPAVPFPCGRVSVSQTSKLTR heavy: VVGGEDAKPGQFPWQVVLNGKVDAFCGGSIVNEKWIVTAAHCVETGVKITVVAGEHNIEETEHTEQKRNVSRIIPHHNYNAAINKYNHDIALLELDEPLVLNSYVTPICIADKEYTNIFLKFGSGYVSGWGRVFHKGYSALVLQYLRVPLVDRATCLESTKFTIYNNMFCAGFHEGGRDSCQGDSGGPHVTEVEGTSFLTGIISWGEECAMKGKYGIYTKVSRYVNWIKNKTKLT | – | 12.4 nM | 7.7 fold
